Assay results: US6420345
pKi: −log10 of the molar value.

Key:
[1] = target: CDC2/cyclin B complex (UniProt P06493); assay: cell-based or functional assay
[2] = target: CDK2/cyclin A complex (UniProt P24941); assay: cell-based or functional assay
[3] = target: CDK2/cyclin E complex (UniProt P24941); assay: cell-based or functional assay
[4] = target: CDK4/cyclin D1 complex (UniProt P11802); assay: cell-based or functional assay
[5] = target: CDK4/cyclin D1 complex (UniProt P11802); assay: in vitro kinase inhibition assay (32P incorporation into GST-Rb)

Chain of CDK4/cyclin D1 complex (P11802 whole entry, chain 1 of 2): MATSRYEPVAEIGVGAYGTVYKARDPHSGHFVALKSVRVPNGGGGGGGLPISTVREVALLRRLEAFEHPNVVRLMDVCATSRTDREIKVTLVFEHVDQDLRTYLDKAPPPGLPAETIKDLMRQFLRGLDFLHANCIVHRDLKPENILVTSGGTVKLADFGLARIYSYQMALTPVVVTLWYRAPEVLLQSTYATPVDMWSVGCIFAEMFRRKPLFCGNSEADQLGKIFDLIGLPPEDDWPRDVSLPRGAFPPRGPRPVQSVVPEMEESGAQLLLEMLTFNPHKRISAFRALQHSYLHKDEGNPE
Chain of CDK4/cyclin D1 complex (P24385 whole entry, chain 2 of 2, further chain): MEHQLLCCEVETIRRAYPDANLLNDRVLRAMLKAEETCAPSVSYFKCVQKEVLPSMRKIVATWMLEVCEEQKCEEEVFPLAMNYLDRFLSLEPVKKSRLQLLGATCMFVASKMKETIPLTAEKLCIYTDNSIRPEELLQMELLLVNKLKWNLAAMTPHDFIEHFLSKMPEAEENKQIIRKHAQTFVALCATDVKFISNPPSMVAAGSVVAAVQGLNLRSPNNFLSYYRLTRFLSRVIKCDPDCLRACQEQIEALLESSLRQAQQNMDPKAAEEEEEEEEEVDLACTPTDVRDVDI
Chain of CDC2/cyclin B complex (P06493 whole entry, chain 1 of 2): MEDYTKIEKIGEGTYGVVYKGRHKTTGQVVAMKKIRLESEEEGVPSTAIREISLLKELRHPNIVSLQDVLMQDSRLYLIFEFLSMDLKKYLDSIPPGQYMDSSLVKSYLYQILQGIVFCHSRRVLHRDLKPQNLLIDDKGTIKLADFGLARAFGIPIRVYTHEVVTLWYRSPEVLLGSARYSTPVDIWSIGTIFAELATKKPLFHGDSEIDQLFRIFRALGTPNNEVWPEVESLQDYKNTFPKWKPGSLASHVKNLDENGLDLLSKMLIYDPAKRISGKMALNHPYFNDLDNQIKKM
Chain of CDC2/cyclin B complex (P14635 whole entry, chain 2 of 2, further chain): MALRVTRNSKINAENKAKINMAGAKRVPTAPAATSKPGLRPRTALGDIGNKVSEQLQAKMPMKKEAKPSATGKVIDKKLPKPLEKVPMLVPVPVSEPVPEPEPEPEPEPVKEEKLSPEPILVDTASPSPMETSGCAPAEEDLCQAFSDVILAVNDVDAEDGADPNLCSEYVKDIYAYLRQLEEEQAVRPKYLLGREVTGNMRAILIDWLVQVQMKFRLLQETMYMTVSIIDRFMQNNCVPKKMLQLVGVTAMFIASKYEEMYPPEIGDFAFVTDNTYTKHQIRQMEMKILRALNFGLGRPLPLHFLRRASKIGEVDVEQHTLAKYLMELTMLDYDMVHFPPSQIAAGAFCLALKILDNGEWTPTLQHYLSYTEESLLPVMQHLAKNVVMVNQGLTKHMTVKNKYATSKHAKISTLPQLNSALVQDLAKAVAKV

| Substance | IC50, in vitro kinase assay [1] | IC50, in vitro kinase assay [2] | IC50, in vitro kinase assay [3] | IC50, in vitro kinase assay [4] | pKi [5] |
| --- | --- | --- | --- | --- | --- |
| p27-p16 fusion protein | 15 nM | 25 nM | 30 nM | 25 nM | 7.64 |
| human p27 (full length, 6xHis and HA tagged) (from UniProt P46527 1-198) | 20 nM |  |  | 63 nM |  |
